Experimental data reported in patent US20190367633A1 (published 2019).
Several values for one entry are separate records, joined by “and”; a condition that tells them apart may be missing. Equal entries are not always repeated.

What was measured:
[1] = biological target: human HER2 (Beijing Yiyi) (human, UniProt P04626 23-652); test: ELISA
[2] = biological target: T1, Recombinant human PD-1-Fc (human, UniProt Q15116 25-167); test: competition
[3] = biological target: T1, Recombinant human PD-1-Fc; test: competition ELISA; blocking PD-1/PD-L1
[4] = biological target: T1, Recombinant human PD-1-Fc; test: competition ELISA; blocking PD-1/PD-L2
[5] = biological target: Recombinant human PD-1 (Beijing Yiqiao Shenzhou, Cat. No. 10377-H08H) (human, UniProt Q15116 25-167); test: ELISA

Binder | EC50 [1] [nM] | IC50 [2] | IC50 [3] [nM] | IC50 [4] [nM] | EC50 [5] [nM]
PD-1 MONOCLONAL ANTIBODYpem (antibody, V domains shown) VH: QVQLVQSGVEVKKPGASVKVSCKASGYTFTNYYMYWVRQAPGQGLEWMGGINPSNGGTNFNEKFKNRVTLTTDSSTTTAYMELKSLQFDDTAVYYCARRDYRFDMGFDYWGQGTTVTVSS VL: EIVLTQSPATLSLSPGERATLSCRASKGVSTSGYSYLHWYQQKPGQAPRLLIYLASYLESGVPARFSGSGSGTDFTLTISSLEPEDFAVYYCQHSRDLPLTFGGGTKVEIK | > 20 | – | – | – | –
anti-PD-1BJHM/anti-HER2 heterodimeric bispecific antibody (bispecific antibody) heavy 1: not shown light 1: DIVLTQSPATLSVTPGDSVSLSCRANQSISNNLHWYQQRSHESPRLLIRFASQSISGIPSRFSGSGSGTDFTLSINSVETEDFGMYFCQQSDNWPLTFGAGTKLEIKRTVAAPSVFIFPPSDEQLKSGTASVVCLLNNFYPREAKVQWKVDNALQSGNSQESVTEQDSKDSTYSLSSTLTLSKADYEKHKVYACEVTHQGLSSPVTKSFNRGEC heavy 2: not shown light 2: not shown | – | 2.06 nM and 1.95 nM | – | – | –
PD-1 MONOCLONAL ANTIBODYBJHM (antibody, V domains shown) VH: EVQLQESGGGLVKPGGSLKLSCAASGFTFSSYGMSWVRQTPEKRLEWVASISGGGRYTYYPDSMKGRFTISRDNAKNNLHLQMSSLRSEDTALYYCVYEYFYTMDYWGQGTSVTVSS VL: DIVLTQSPATLSVTPGDSVSLSCRANQSISNNLHWYQQRSHESPRLLIRFASQSISGIPSRFSGSGSGTDFTLSINSVETEDFGMYFCQQSDNWPLTFGAGTKLEIK | > 20 | – | > 1.2 | > 1.11 | > 0.08
anti-PD-1pem/anti-HER2 heterodimeric bispecific antibody (bispecific antibody) heavy 1: not shown light 1: EIVLTQSPATLSLSPGERATLSCRASKGVSTSGYSYLHWYQQKPGQAPRLLIYLASYLESGVPARFSGSGSGTDFTLTISSLEPEDFAVYYCQHSRDLPLTFGGGTKVEIKRTVAAPSVFIFPPSDEQLKSGTASVVCLLNNFYPREAKVQWKVDNALQSGNSQESVTEQDSKDSTYSLSSTLTLSKADYEKHKVYACEVTHQGLSSPVTKSFNRGEC heavy 2: not shown light 2: not shown | – | 3.68 nM and 4.54 nM | – | – | –
